According to patent publication US20150224182A1 (UNIVERSITY OF VIRGINIA PATENT FOUNDATION, published 2015):
Non-standard residues stand in square brackets, D forms with d. No end group written: not given here. pT = C[C@@H](OP(=O)(O)O)[C@H](N)C(=O)O; pS = N[C@@H](COP(=O)(O)O)C(=O)O

B1: RLAsLNAEAL (peptide)
peptide: RLA[pS]LNAEAL
notes: From Bromo adjacent homology domain-containing 1 protein, UniProt Q8TBE0
B2: ILDsGIYRI (peptide)
peptide: ILD[pS]GIYRI
notes: From Hermansky-Pudlak syndrome 5 protein, UniProt Q9UPZ3
B3: KMYsEIDIKV (peptide)
peptide: KMY[pS]EIDIKV
notes: From 116 kDa U5 small nuclear ribonucleoprotein component, UniProt Q15029
B4: KAKsPAPGL (peptide)
peptide: KAK[pS]PAPGL
notes: From Nuclear receptor corepressor 2, UniProt Q9Y618
B5: MLAEsPSVPRL (peptide)
peptide: MLAE[pS]PSVPRL
notes: From Putative uncharacterized protein, UniProt Q8WUC7
B6: KIFsGVFVKV (peptide)
peptide: KIF[pS]GVFVKV
notes: From 60S ribosomal protein L7-like 1, UniProt Q6DKI1
B7: GLLsPARLYAI (peptide)
peptide: GLL[pS]PARLYAI
notes: From Leucine rich PPR-motif containing protein, UniProt P42704
B8: RPR(sLss)PTVTL (peptide)
peptide: RPRSLSSPTVTL
modifications: also: one of Ser4, Ser6, Ser7 phosphorylated
notes: From E3 ubiquitin-protein ligase NEDD4-like, UniProt Q96PU5
B9: RQIsFKAEV (peptide)
peptide: RQI[pS]FKAEV
notes: From Ubiquitin-conjugating enzyme E2 J1, UniProt Q9Y385
B10: KLFsPSKEAEL (peptide)
peptide: KLF[pS]PSKEAEL
notes: From Protein cramped-like, UniProt Q96RY5
B11: YQLsPTKLPSI (peptide)
peptide: YQL[pS]PTKLPSI
notes: From Nibrin/cell cycle regulatory protein p95, UniProt O60934

Target: T1, HLA-A*0201 (human)
T1 construct: also called HLA-A2
Assay: listed as presented with class I MHC on cancer cells (leukemia or transformed B cells)

Binding result, binds:
GGSFGGRSSG[pS]P (From HNRNPA3, UniProt P51991) [GGSFGGRSSGsP]
B1
DS[pS]EEKFL (From Statherin (saliva), UniProt P02808) [DSsEEKFL]
B2
B3
RTY[pS]GPMNKV (From POF1B, UniProt Q8WVV4) [RTYsGPMNKV]
B4
B5
KVA[pS]LLHQV [KVAsLLHQV]
B6
RQA[pS]LSISV (From Protein kinase 2D, UniProt A0JLT6) [RQAsLSISV]
B7
KLD[pS]PRVTV (From Protein FAM86A, UniProt Q96G04) [KLDsPRVTV]
KLMAPDI[pS]L [KLMAPDIsL]
KVL[pS]TEEMEL (From Protein FAM128B, UniProt Q6NZ67) [KVLsTEEMEL]
KLLQFYP[pS]L [KLLQFYPsL]
KMD[pS]FLDMQL [KMDsFLDMQL]
VLMKSPSPAL (also: one of S5 or S7 phosphorylated, From YTHDC2, UniProt Q9H6S0) [VLMK(sPs)PAL]
B8
B9
B10
B11

Target: T2, HLA-B*0702 (human)
T2 construct: also called HLA-B7
Assay: HLA-B7 eluate MS; ALL1; 1 means <1 copy/cell

Binding result, binds:
RPI[pT]PPRNSA [PPP1CA phosphopeptide RPItPPRNSA]
RPA[pT]GGPGVA [phosphopeptide RPAtGGPGVA (no gene name in Table 7; Unknown protein)]
KPR[pS]PDHVL [MACF1 phosphopeptide KPRsPDHVL]
RPH[pS]PEKAF [C17orf85 phosphopeptide RPHsPEKAF]
RPA[pS]ARAQPGL [C6orf64 phosphopeptide RPAsARAQPGL]
KPQTRGK[pT]F (also called Carabin) [TBC1D10C phosphopeptide KPQTRGKtF]
